For experiment [1], the target named is T1, recombinant human JAM-A/Fc (R&D Systems ref. 1103-JM) (human, UniProt Q9Y624 28-238).
T1 construct: also called hJAM-A/Fc; Human JAM-1-Fc
T1 sequence: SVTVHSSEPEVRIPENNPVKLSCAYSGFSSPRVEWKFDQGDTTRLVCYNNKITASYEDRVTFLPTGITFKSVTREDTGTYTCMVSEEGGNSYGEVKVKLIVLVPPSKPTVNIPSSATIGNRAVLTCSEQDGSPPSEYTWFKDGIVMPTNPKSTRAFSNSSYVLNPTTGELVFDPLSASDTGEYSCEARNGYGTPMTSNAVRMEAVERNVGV
Put plainly: SPR (BIAcore X), KD=kd/ka. The protocol:
(§1) FIG. 14 is sensorgrams obtained with a double reference, (Fc2-Fc1)6F4(Fc2-Fc1)HBS-EP. The curve is fitted using a Langmuir A+B binding model.
(§2) Murine monoclonal 6F4 antibody: 1.3 mg/ml [0351] […] Running buffer: HBS-EP (BIAcore) [0354] Binding kit: “Amine” (BIAcore) [0355] Binding buffer: Acetate pH 5.0 (BIAcore) [0356] Capturing antibody: goat IgG Fc anti-human (=GAH, goat anti-human) (Bioscience) [0357] Regeneration buffer: Glycine, HCl pH 1.5 for 30 seconds (BIAcore).
For orientation: Surface plasmon resonance follows binding to a sensor surface in real time, without labels.

In experiment [2] the target is T2, natural human JAM-A protein (F11R / junctional adhesion molecule A), isoform a (human, UniProt Q9Y624 28-299).
T2 construct: Natural protein; Mass spectrometry matched it to JAM-A isoform a; also called F11 receptor; JAM-1
T2 sequence: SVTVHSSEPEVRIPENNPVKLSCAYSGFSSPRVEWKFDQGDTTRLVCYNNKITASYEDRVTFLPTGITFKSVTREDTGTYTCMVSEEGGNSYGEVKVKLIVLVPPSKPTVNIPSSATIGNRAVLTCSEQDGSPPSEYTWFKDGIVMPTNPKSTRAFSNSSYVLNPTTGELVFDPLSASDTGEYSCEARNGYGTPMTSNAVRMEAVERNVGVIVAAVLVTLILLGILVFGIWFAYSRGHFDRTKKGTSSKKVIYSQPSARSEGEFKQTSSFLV
Put plainly: flow cytometry, labeling of MCF-7 cells with 6F4. On the technique in general: Flow cytometry measures light scatter and fluorescence of single cells or particles in a stream.

For experiment [3], the target named is T1, recombinant human JAM-A/Fc (R&D Systems …). Put plainly: SPR (BIAcore X), double reference, Langmuir A+B binding model, 25° C. The protocol: as §1, §2
Experiment [4] deals with T3, recombinant human JAM-B/Fc (R&D Systems ref. 1074-VJ) (human, UniProt P57087 29-236, limits assumed).
T3 construct: Bought product; also called hJAM-B/Fc; human form of JAM-B; not shown: Fc part of the bought fusion protein
T3 sequence (looked up): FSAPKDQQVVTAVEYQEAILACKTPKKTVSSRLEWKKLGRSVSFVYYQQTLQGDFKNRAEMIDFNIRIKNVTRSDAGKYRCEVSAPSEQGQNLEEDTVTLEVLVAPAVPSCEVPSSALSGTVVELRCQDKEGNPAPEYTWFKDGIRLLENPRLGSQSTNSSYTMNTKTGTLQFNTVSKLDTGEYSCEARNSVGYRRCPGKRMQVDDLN
As to the kind of experiment: western blot, non-reducing, revealed with 6F4; 250, 25 and 10 ng deposited.

Experiment [5] deals with T4, recombinant human JAM-C/Fc (R&D Systems ref. 1189-J3) (human, UniProt Q9BX67 32-241, limits assumed).
T4 construct: Bought product; also called hJAM-C/Fc; human form of JAM-C; not shown: Fc part of the bought fusion protein
T4 sequence (looked up): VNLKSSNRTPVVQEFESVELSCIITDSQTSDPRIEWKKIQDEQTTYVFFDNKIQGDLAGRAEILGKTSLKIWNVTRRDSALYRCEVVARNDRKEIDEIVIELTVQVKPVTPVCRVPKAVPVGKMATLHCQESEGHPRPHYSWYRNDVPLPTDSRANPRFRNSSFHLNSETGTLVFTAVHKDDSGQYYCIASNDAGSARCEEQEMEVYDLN
The experiment is described as above.

The target in experiment [6] is T5, recombinant murine JAM-A/Fc (R&D Systems ref. 1077-JM) (murine, UniProt O88792 27-238).
T5 construct: extracellular domain; Bought product; also called mJAM-A/Fc; Mouse JAM-1-Fc; not shown: Fc part of the bought fusion protein
T5 sequence (looked up): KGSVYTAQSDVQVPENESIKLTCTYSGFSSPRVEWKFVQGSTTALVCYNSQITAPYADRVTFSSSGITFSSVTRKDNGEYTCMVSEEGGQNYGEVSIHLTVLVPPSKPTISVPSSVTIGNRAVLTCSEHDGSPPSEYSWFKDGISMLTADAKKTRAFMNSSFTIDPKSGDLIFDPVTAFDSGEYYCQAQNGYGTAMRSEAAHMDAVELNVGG
The description is as above.

B1: murine monoclonal 6F4 antibody (antibody, V domains shown)
VH: EIQLQQSGPELVKPGASVKVSCKASGYSFTDYSMYWVKQSHGKSLEWIGYIDPYNGGTRYNQKFKGKATLTVDKSSSTAFMHLNSLTSEDSAVYYCARQTDYFDYWGQGTTLTVSS
VL: DIQMTQSPSSLSASLGGKVTITCKASQDINNYIAWYQHKPGKGPRLLIHYTSTLQAGIPSRFSGSGSGRDYSFSISNLEPEDIGTYYCLQYDNLWTFGGGTKLEIKR
notes: also called 6F4 MAb; Mab 6F4; copies: 2 + 2
Turning to B1, the dissociation constant (Kd) in experiment [1] turned out to be 0.022 nM. For the same molecule, the “EC50 (read off the curve)” value in experiment [2] was approximately 0.3 µg/mL. Besides, in experiment [3], the off-rate constant (koff) was 2.5e-07 s⁻¹. The on-rate constant (kon) in experiment [3] is 138000 M⁻¹ s⁻¹. Besides, the binding result in experiment [4], in experiment [5] and in experiment [6] was “no binding (tested: 250 ng)” throughout.

As a reminder, the Kd is the free concentration of one partner at which half of the binding sites on the other are occupied at equilibrium, for simple one-to-one binding. As usually defined, the EC50 (read off the curve) is the concentration needed to bring the measured effect to its halfway point. For orientation: koff means the first-order rate constant of dissociation. The term kon denotes the second-order rate constant of association.
